Assay: soluble fraction after stress (log2 fold change); higher = more stays soluble; pooled small domains, quantitative proteomics
Conditions: stress: 50 degC
Summary of the method: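 The measure of aggregation propensity here is the base-two logarithm of the fold change in the soluble amount of each protein after stress. A higher value means more of that protein stays in solution. Stress was applied at 50°C to pooled libraries of small protein domains, read out by high-throughput quantitative proteomics.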

Sequence	soluble fraction (log2)
HMDSGVPEWLASALRASPVAWKNFLALPPSHQRRYVGWISSARRDETRNRRIAEAISLLVEHKRLG	-1
HMDSIKDQIYQILKEDILTGELRSGEQLVEQTIAARFNTSRSPVREAIKQLTGDGLVINITNKGTFVK	0.168
HMDSISEQIYSIIKEEILLAKRKPGEQINPRKLADEFETSVMPIRDALNQLANEGLVIRKPRVGFFVR	0.0655
HMDSITEADLLRWAHALSGIARTGLGFTESRYERERYEEVLAVAADILAASSRSHDRAALVDEWLKMVGV	-1.8
HMDSKKNLLGKNGLAFTTLRPAGTVLIDGQRHDVISNGDMIPKGATVRVIAIEGASITVEALPD	0.155
HMDSMATVPDLVGKTEDEAKALANDAHLGVQMAGEEASDQEKGKISRQETAAGTQVAEYTTVKYWVSTGTQ	0.124
HMDSPALAIPSSAILRDGLEHIFFRQDPSDPDQVIRVVADLGLSDGRWTVVRSGLERTDQVVLSGA	0.0102
HMDSQKKNETLSSTADEIIKNYAGKRDLSEESMEQLEQFQKDMRGADVNIFTAAQIRMLDQIFQENLH	-0.0243
HMDSSLVWVDYLLGSKLTKLNSSNELTGPGASAKTIGAFLGENKQSFDLYIESVHNARDTYSDILTHGT	-0.0043
HMDSSSYSAKVGTLIQETRQARGMTQAQLAQALGTSQSAINRIEKGGQNISLDMLNRISEVLSSQIVTLNP	-0.0626
HMDSVAKSFLAEIERFLETAGLEPTTLGKQALGDPSFVFDLRKGRSPSTRTIGKLRVWMQQQNALS	-1.2
HMDSVTLGISFNGKTRFTLDFPADAAAADIEKAALEAEQSQRYLEGMTVAKVIVVPGRIVNIVLK	-0.501
HMDSVTMYATTGVNVRSGPSTSYSIVGGLDRGDKVTRIGTSGNWTKVVWGNGSAYVFSKYLQTGY	-1.81
HMDTAEQNWRLRGKLVTLGLNARQIRMALASHAPRYLEDNIAVVERDLAAGKVRNLPAYLLAALREDYRP	-1.67
HMDTEIGDILALRQIMELLDEKDRQLIIMRYFQGLTQSVTAKNLNMTQVQVSRREKKLLTFMREQLL	-0.739
HMDTEVVMINVVGMNIDKAKNSLNHKNILYKISYQDVSEGENNVVLKQSISSNTKIKKGQVVSLVVGKLN	0.352
HMDTFEITVEESDIDKRIDLFLAGNLESFSRSYIQDLIKKGKATISGKPVKANYRLREGDSVVLSIPKPK	-0.227
HMDTGKLQSLVGSRGVAHTVLRPSGKVMIGDDVYPAVAETGFIPRGTAIVVRREEQGQLYVVEARK	0.179
HMDTGPISGQVEADRVEVHGHLDGKISAQNVVVGQTGVVKGDIEFGENLRTEEGADIEGYIK	-0.149
HMDTGPSFATRRQEAFNALTQIAASNKEFMNVAGDVLWKVADFPEAQILAQRWRRIIPPNVLGEA	-0.193
HMDTIAEFIAELTPLEQKVFHVYYEKGQSLKDTAQQAEITSTSARGALDRIRAKGRHFHLAVILFIG	-0.622
HMDTINEYERNILSLITSKPGISAVQIAADTDKSIITAKRGIKTLVDGKLIEYRGSKKTGGYFLLTQS	-0.371
HMDTIYMVVAKNIKYYRLIKSMSKKDLAEAVNVTPMAISNYENGKRKPEIDILKKIANVLGVRVVDFLTVR	-1.73
HMDTKLFNYGVGKHAYISWNEGGKRTAYIGFGNDGADVLTINNVKQGGSLGIYKDKITLNSQTVLTD	-0.0296
HMDTLHGRILEEFSRKIVDGTWPPGFSLPKETELADQYGVSRMTMNKVLTRLASDGFVIRRKRSGTVVAQP	-1.21

Sequence	soluble fraction (log2)
HMDTLTRAMVWTIIARAEGVDTTGGATWYAKAQEWVTAKGISDGENPNAAITRQELVTMLYRLAGEPAV	-2.78
HMDTMQQESMDTKSILATALMELTSRKNFAKITIADITHVSGFNRQTFYYHFRDKYELLSWIY	0.0516
HMDTNRIIGNKIYQLRRSINMTQQELAEKVGISVTFLSEIENGRKSMSVDTLIKLSKGLQVSLDTIVF	-1.46
HMDTPVYYYVNGNGVRMRKDASLESDILILLYKGTKVEYVDVKGEWIKVKYNNEIGYIRNDLLSAEMPD	-0.0872
HMDTQITPNKAKEIALAHAGVTEAAANFKKIKLDNKNGKSIYEIEFIANKSRYEFIVDAKNGSIIKFEK	0.0656
HMDTRKEREIALYEAALRLIASGVNPAAMKVQQIADEAGIGKGTVYEYFASKEEILHGMALH	-0.241
HMDTTLFGLFQNVILTQEDYEELSRTIVEDLDGLIDRLSAYMTSTGKTYKNHKATLLSWYLQDEKKFK	-1.82
HMDTVEALTEQLKKLDKRGEGQIPAPEFKQYMMNMGGKMTAEELDEMMKVADPGKEGVVNIAEFADAL	0.35
HMDTVEFPVQVNGKVRGKITVAADAGKDAIETAALADEKVLAFLDGATPKKVIVVPGKLVNLVVQPG	0.435
HMDTVSYMSDAVKAGAVTPSHDEEARARYLLYAGFGAILLFLRYEASEPGDIESAIREFMERYGPVTAELY	0.243
HMDTYKGFIFEVVDKYFSPTLNQKIGQAKNKQGIVLLQTKPSFTQDPKVLIEELKLIIDRDNLKA	-0.145
HMDVAAQITYAMRTMGVAPIPRNYELFYEAYIGSNPALTKELAALGSKATQEELDELGQQYF	-1.93
HMDVFPDESLKAWLIEMGFKLDQKKMNVFTVLRRMLLQTAPSVKEFRILEIVLQQSRRKLKELNDLKKS	-0.0335
HMDVKQSAAGVAGRIRFELNRTLTGQGHEKFTSASQAIGPRPAAELARRLFNSGSVVGVHVFANIVTVDLL	-0.051
HMDVLKMKVEDLNIGSRTVNSLTAAKIKTVAGLIKKSKESLLELDGMGNKGVEEIILALKKLGLEL	0.0186
HMDVPTEEAILAYNNVPIELAAKFIGWSDITIRYALQEERAPFGMAAQNPKTGTWSYNISPGLLLKYKSGE	-2.11
HMDVPVEVFMERIVTALREGRKTTFSELMEGKPERGKVIGTFLALLQLSKGQQIQIHQEQRTGEISIEGGA	-0.315
HMDVQTVTVIENVNVRKSASENGQKLGLAYTGEKLELLMKQADGWTRVKYNGETAYVKSDYV	-0.00354
HMDVTSLDMLRFLMDQHGLRQQDLSELGSQGVVSEILAGKRELNLRHIGALARRFKVPPEVFLPA	-0.631
HMDVYKRQKLRNFIESLFEDAPKNKQTIELKEEMLQNLIDKYNDLVDSGKSSEAAYNIATAS	-0.0392
HMDWNPVRDITAHQVLAILQATHIRAPTVAAEAKRTLSSIFQFAVATLRADIDPVWPVRNALPKNKT	0.00605
HMDYARYGLSEKEAELIELIAQGMNNKEISAEIYLSEGTVRNYISELLEKLELRDRTQLAVYYYTHR	-2.71
HMDYDDLVPLDARGRLRLDGQDIILAFGRHRGRSIEEVHNHDKSYFDWLVSPAGGLEDEVIATLRERF	-0.607
HMDYENGTVKWFNTKKGYGFITRENGEDLFVHFRNIKGRGRRSLNDGEPVTFVVIEGDKGLQADQVSA	-0.025
HMDYGSLQRAIENQLEVRNYQKPKKFLTKIIQLMETIMVRHGVMVVGLTGTGKTTVIETLSRSMEQ	-0.302

Sequence	soluble fraction (log2)
HMDYIGIQAAKEAALKDADISSEQAVFTMAELDNKNNIFYYQIMFTENGTEYRYDIDALTGVIIEKNHFF	-1.96
HMDYKLDVNFPEMYLEQIPAEKRAALIQILEQDPRPSYQKDPVRIYGMSYAGMEIHFRVDKETLYVTEVER	-0.996
HMDYLSEFITDKVVRADGYSIRKGELSNEFKQWFITNVGTKNPKPKEIHDYMDRKFGKNKNGIWKNVKIKL	-0.38
HMDYQEVEFEKLGKEILTKILLDINKKATKKTLKILIDGFNYDSYRSFYIAIGKAQISSDSILELLQH	-0.622
HMDYSWNFFIGFSVVDKVAGNLGTIEEIDDKTINTLFLVKNDDEDLIIPATEDFVEKIDAKKRILYLNLPE	-1.56
HMDYYASVDQVWRELGLAGPARRALIDDGLFKLSDLRKTSLAAVKELHGMGPNAIRILTTEMKKADLSFR	-2.25
HMDYYDTLGVPRNASQSDIKKAYKKQSMQHHPDRTGGDDTKFKDVNEAYQVLSNSEKKQMYDQFGTA	0.0532
HMDYYNILGVNKAATAQDIKRAYRKLAKEHHPDHGGDATRLQQVNEAYDTLKDPQRREQYDS	0.24
HMEAADAGTLAQRAAQYFNEKNYAAALDALERRAAMAPETTELRMMRGWSLLHLNRKDEARNAFATLG	-0.0562
HMEAAIRNALSRVENPDETQRARIYRTAHDALIRNLENRGITDPEQVRPQVSRLKDLISVIEREYHG	-0.0521
HMEAALTLRVDKAGSLRSLLSDEQYAKTSKIIVSGEINTLDIKTLQEMSGEKGSLQSIDLSQANIVAY	-0.00676
HMEAFELTPREKQVLQLLVQGKAYKIIAADLDITYDTVRAHIKKIYEKLHVGSMTEAVAKAIQHKL	-0.882
HMEAKKVIAVHIIGEINKPGIVELEEGARVIDAIKKAGGTTEKADLAQINLAYILKDGQKIYIPNTEDN	0.0276
HMEALASESVKDKIRKIIDSEDPSRPMSDQRIKEMLKAANIDIARRTVTKYREAMNILSSTKRRQV	-0.272
HMEALDPLTAREQEVLEMILSGKSNREIAAELHITENTVKTHAQSIYSKYDVRGRAKLISLLLKGEA	-0.102
HMEALQKVSINYYDEGAGKQIAEVPLEVGAGDTEIALAVINKYMPAEYNLVSTDYQIRGGYVYVSVTPA	-0.072
HMEAPPHEALSNREFQVLQLLSQGRSVTQIAHQLTLSANTISTYRARIFDKLGLHNPADLYAYAARHGLM	-0.676
HMEAPWQEIKRQVMDGLDMSREFTDEELRERIALAVRSYSKEKLLSLKVRESYEEQIFNSFR	-0.239
HMEAQFIDINDVRIGTYVYVDLGWIKHPFALNSFKITSRDQIDTLIKLGVKRIRWSPEKSDS	-1.3
HMEARNDWAQQSRADAEFGGEKLDENLAVAKKAVEALASPELKTLLEQSGLGNHPEIIRLFYRAGRSLS	0.132
HMEATILTATPEAAGQRLDAFLAETLPELTRSAAQRLIAEGQVAVDGKIPTKSLKLAGGETVSVRLPEPE	0.275
HMEAVIGGIYRHYKGNNYKLLAVATHSETLEKMAVYQALYGEMGIWVRPLAMFMETIEKDGQSLKRFE	-1.78
HMEDAWMKKELWDAIATLPKKQRLVMTMRLTNNHSYKEIAAILGISENSAKVSYHHAVERLKEKFK	-1.33
HMEDDPIYEQVMIFLLDKQITSAPELERRFKITHQRAIELLAQMEKTGIVSTMGHAGKRDVLT	-0.827
HMEDEFNQIASQKNVPSFLGKGKKEVINIAKKNKIKINLSGNGYVKRQIPAPGEVISHLDEVTIFLEPG	0.396
